Tests used:
Experiment in all cases: EMSA
trFANCM-deltaHel2i = molecular target: T1, trFANCM-deltaHel2i (UniProt Q8IYD8 82-647, del298-443)
T1 sequence: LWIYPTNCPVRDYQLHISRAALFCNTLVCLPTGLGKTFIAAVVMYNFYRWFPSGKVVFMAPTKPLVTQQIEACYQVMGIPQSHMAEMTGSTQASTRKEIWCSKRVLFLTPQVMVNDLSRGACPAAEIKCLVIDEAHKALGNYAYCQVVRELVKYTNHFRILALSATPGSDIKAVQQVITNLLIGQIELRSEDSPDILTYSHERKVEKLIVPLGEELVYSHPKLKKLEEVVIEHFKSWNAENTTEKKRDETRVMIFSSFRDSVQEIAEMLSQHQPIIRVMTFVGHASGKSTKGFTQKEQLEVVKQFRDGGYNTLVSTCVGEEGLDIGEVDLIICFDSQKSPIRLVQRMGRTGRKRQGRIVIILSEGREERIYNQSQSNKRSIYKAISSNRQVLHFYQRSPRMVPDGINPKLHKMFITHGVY

[1] = molecular target: T2, trFANCM (translocase domain) (UniProt Q8IYD8 82-647)
T2 sequence: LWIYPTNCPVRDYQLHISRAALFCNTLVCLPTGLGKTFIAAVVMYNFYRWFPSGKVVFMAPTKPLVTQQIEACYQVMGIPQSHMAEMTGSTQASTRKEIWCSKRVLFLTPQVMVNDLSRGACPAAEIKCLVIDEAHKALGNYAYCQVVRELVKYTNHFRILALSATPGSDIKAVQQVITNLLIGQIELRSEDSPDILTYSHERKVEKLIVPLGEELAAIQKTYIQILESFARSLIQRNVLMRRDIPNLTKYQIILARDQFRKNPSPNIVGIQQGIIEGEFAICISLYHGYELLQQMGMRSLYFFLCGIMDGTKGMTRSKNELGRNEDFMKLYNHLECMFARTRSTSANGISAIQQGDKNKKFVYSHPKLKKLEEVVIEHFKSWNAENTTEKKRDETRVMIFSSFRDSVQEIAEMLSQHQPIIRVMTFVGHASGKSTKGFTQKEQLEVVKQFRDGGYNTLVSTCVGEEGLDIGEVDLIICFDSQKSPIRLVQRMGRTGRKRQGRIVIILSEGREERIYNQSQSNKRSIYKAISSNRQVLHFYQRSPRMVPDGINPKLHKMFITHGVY

FANCMc-deltaHel2i = FANCMc-deltaHel2i (UniProt Q8IYD8;Q8N2Z9;A8MT69;Q9BTP7 1-297+444-2048;1-138;1-81;1-215, internal_change)
[2] = molecular target: FANCMc (full-length FANCM complex) (UniProt Q8IYD8;Q8N2Z9;A8MT69;Q9BTP7 1-2048;1-138;1-81;1-215)

B1: 30 bp static (non-migratable) Holliday junction, X0s1-4, IRDye700 (structured_DNA)
DNA 1: TACCAGTGCCTTGCTAGGACATCTTTGCCCAC
DNA 2: GTGGGCAAAGATGTCCATCTGTTGTAATCGTC
DNA 3: GACGATTACAACAGATCATGGAGCTGTCTAGA
DNA 4: TCTAGACAGCTCCATGTAGCAAGGCACTGGTA
trFANCM-deltaHel2i
  binding signal: > 60 fold reduction vs trFANCM
[1]
  binding result: binds
FANCMc-deltaHel2i
  binding result: binds
[2]
  binding result: binds

Source: paper PMC11472164
